The text below walks through data of paper PMC7005942.

The series has as its target HIV-1 integrase wild type (HIV-1) (UniProt P12497). The series can be described thus: filter binding. The note with it: Filter binding: 20 mM Tris-HCl pH 7.5, 200 mM NaCl, 6 mM MgCl2, 1 mM DTT, 0.1 mg/mL BSA, room temperature, 10 min.

Some results are limits rather than exact numbers.

For HIV-1 TAR (1-57), the Kd is over 5 µM.

For orientation: Kd means the equilibrium constant for the complex coming apart. Low values mean a tighter complex, high ones a looser complex.
